According to article PMC2756588:

T1: Lsb3, P43603
T1 sequence (P43603 385-451, looked up): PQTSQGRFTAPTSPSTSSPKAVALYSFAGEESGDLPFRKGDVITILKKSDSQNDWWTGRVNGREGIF

T2: Boi2, P39969
T2 sequence (P39969 32-116, looked up): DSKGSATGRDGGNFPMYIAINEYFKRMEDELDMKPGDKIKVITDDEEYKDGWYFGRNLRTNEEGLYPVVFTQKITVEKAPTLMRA

T3: Lsb1, P53281
T3 sequence (P53281 45-122, looked up): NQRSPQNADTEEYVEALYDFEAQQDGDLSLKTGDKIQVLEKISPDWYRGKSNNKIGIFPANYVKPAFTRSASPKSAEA

T4: Cdc25, P04821
T4 sequence (P04821 50-136, looked up): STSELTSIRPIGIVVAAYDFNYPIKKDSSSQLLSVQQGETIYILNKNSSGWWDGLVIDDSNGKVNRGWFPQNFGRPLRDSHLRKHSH

T5: Bzz1-1, P38822
T5 sequence (P38822 478-572, looked up): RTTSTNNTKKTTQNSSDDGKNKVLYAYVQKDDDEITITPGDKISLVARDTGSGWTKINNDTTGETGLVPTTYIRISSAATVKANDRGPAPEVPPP

T6: Pin3, Q06449
T6 sequence (Q06449 53-122, looked up): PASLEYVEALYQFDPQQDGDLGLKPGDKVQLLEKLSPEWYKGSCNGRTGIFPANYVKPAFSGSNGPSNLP

T7: Pex13, P80667
T7 sequence (P80667 295-386, looked up): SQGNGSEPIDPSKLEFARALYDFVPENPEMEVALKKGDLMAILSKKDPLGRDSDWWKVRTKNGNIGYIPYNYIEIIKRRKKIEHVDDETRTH

T8: Abp1, P15891
T8 sequence (P15891 535-592, looked up): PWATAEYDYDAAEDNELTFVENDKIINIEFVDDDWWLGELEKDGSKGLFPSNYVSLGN

T9: Fus1, P11710
T9 sequence (P11710 432-512, looked up): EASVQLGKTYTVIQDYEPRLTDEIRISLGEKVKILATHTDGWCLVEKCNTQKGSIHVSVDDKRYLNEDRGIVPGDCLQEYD

T10: Bud14, P27637
T10 sequence (P27637 247-328, looked up): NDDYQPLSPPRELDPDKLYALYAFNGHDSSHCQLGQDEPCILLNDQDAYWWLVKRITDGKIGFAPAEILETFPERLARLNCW

T11: Bbc1, P47068
T11 sequence (P47068 1-78, looked up): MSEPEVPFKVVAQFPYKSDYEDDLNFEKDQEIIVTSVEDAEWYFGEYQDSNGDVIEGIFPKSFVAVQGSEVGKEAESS

T12: Myo5, Q04439
T12 sequence (Q04439 1072-1160, looked up): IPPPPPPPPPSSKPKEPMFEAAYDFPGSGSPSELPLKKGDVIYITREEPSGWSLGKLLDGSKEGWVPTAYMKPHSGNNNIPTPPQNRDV

T13: Hse1, P38753
T13 sequence (P38753 208-285, looked up): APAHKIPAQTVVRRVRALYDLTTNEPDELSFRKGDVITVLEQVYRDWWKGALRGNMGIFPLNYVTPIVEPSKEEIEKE

T14: Nbp2, Q12163
T14 sequence (Q12163 103-180, looked up): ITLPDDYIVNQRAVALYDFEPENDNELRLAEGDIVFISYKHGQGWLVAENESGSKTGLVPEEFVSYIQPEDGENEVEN

T15: Cyk3, Q07533
T15 sequence (Q07533 1-83, looked up): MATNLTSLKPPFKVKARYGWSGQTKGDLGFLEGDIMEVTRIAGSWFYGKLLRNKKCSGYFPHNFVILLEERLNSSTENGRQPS

T16: Bzz1-2, P38822
T16 sequence (P38822 568-633, looked up): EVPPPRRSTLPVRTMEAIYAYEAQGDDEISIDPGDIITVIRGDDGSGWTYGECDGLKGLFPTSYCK

T17: Sla1-3, P32790
T17 sequence (P32790 344-424, looked up): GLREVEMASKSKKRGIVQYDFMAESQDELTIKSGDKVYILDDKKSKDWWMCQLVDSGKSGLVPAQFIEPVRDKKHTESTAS

T18: Sla1-2, P32790
T18 sequence (P32790 60-140, looked up): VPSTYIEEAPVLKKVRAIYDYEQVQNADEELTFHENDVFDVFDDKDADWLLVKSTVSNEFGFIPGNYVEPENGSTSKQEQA

T19: Lsb4, P32793
T19 sequence (P32793 402-468, looked up): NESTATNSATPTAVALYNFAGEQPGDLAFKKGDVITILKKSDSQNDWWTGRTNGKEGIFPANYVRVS

T20: Hof1, Q05080
T20 sequence (Q05080 590-669, looked up): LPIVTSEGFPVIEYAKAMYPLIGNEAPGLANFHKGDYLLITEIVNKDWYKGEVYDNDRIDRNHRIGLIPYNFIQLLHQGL

T21: Boi1, P38041
T21 sequence (P38041 1-86, looked up): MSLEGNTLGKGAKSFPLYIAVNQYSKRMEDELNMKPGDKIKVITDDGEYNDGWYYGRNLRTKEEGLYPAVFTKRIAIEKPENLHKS


Experiments:
Experiment in all cases: SPOT array
Lsb3, P43603 = molecular target: T1, Lsb3, P43603; conditions: median of control spots 406
Boi2, P39969 = molecular target: T2, Boi2, P39969; conditions: median of control spots 1161
GST = conditions: median of control spots 978
Lsb1, P53281 = molecular target: T3, Lsb1, P53281; conditions: median of control spots 388
Cdc25, P04821 = molecular target: T4, Cdc25, P04821; conditions: median of control spots 969
Bzz1-1, P38822 = molecular target: T5, Bzz1-1, P38822; conditions: median of control spots 4446
Pin3, Q06449 = molecular target: T6, Pin3, Q06449; conditions: median of control spots 2171
Pex13, P80667 = molecular target: T7, Pex13, P80667; conditions: median of control spots 1341
Abp1, P15891 = molecular target: T8, Abp1, P15891; conditions: median of control spots 935
Fus1, P11710 = molecular target: T9, Fus1, P11710; conditions: median of control spots 1200
Bud14, P27637 = molecular target: T10, Bud14, P27637; conditions: median of control spots 956
Bbc1, P47068 = molecular target: T11, Bbc1, P47068; conditions: median of control spots 796
Myo5, Q04439 = molecular target: T12, Myo5, Q04439; conditions: median of control spots 471
Hse1, P38753 = molecular target: T13, Hse1, P38753; conditions: median of control spots 1727
Nbp2, Q12163 = molecular target: T14, Nbp2, Q12163; conditions: median of control spots 357
Cyk3, Q07533 = molecular target: T15, Cyk3, Q07533; conditions: median of control spots 1451
Bzz1-2, P38822 = molecular target: T16, Bzz1-2, P38822; conditions: median of control spots 4538
Sla1-3, P32790 = molecular target: T17, Sla1-3, P32790; conditions: median of control spots 5475
Sho1, P40073 = conditions: median of control spots 1148
Chain of Sho1, P40073 (P40073 287-367): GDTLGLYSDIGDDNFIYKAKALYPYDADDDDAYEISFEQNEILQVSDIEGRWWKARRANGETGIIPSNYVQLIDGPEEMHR

Myo3, P36006 = conditions: median of control spots 468
Bem1-1, P29366 = conditions: median of control spots 4282
Chain of Bem1-1, P29366 (P29366 55-141): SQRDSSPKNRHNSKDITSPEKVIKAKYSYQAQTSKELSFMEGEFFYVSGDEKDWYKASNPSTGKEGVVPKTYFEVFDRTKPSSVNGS

Sla1-2, P32790 = molecular target: T18, Sla1-2, P32790; conditions: median of control spots 712
Lsb4, P32793 = molecular target: T19, Lsb4, P32793; conditions: median of control spots 397
Rvs167, P39743 = conditions: median of control spots 2707
Chain of Rvs167, P39743 (P39743 419-482): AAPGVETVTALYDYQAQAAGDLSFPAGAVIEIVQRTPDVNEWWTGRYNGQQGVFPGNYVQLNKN

Hof1, Q05080 = molecular target: T20, Hof1, Q05080; conditions: median of control spots 4086
Boi1, P38041 = molecular target: T21, Boi1, P38041; conditions: median of control spots 1162
Bem1-2, P29366 = conditions: median of control spots 4347
Chain of Bem1-2, P29366 (P29366 139-227): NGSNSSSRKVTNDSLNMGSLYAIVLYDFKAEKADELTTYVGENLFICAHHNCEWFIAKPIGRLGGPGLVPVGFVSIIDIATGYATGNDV

Row | Binder | SPOT intensity (Lsb3, P43603) | SPOT intensity (Boi2, P39969) | SPOT intensity (GST) | SPOT intensity (Lsb1, P53281) | SPOT intensity (Cdc25, P04821) | SPOT intensity (Bzz1-1, P38822) | SPOT intensity (Pin3, Q06449) | SPOT intensity (Pex13, P80667) | SPOT intensity (Abp1, P15891) | SPOT intensity (Fus1, P11710) | SPOT intensity (Bud14, P27637) | SPOT intensity (Bbc1, P47068) | SPOT intensity (Myo5, Q04439) | SPOT intensity (Hse1, P38753) | SPOT intensity (Nbp2, Q12163) | SPOT intensity (Cyk3, Q07533) | SPOT intensity (Bzz1-2, P38822) | SPOT intensity (Sla1-3, P32790) | SPOT intensity (Sho1, P40073) | SPOT intensity (Myo3, P36006) | also measured
1 | RRRIAYPFYPFKKLG | 0 | 0 | 2 | 4 | 85 | 0 | 0 | 5 | 36 | 14 | 3 | 133 | 0 | 13 | 21 | 1 | 6 | 21 | 25 | 2 | SPOT intensity (Bem1-1, P29366): 1; SPOT intensity (Sla1-2, P32790): 0; SPOT intensity (Lsb4, P32793): 0; SPOT intensity (Rvs167, P39743): 0; SPOT intensity (Hof1, Q05080): 8; SPOT intensity (Boi1, P38041): 2; SPOT intensity (Bem1-2, P29366): 3
2 | LRIKRKPVQTFFEFI | 0 | 1 | 1 | 4 | 271 | 0 | 5 | 13 | 102 | 16 | 17 | 54 | 0 | 25 | 46 | 1 | 0 | 9 | 173 | 8 | SPOT intensity (Bem1-1, P29366): 1; SPOT intensity (Sla1-2, P32790): 0; SPOT intensity (Lsb4, P32793): 12; SPOT intensity (Rvs167, P39743): 2; SPOT intensity (Hof1, Q05080): 7; SPOT intensity (Boi1, P38041): 11; SPOT intensity (Bem1-2, P29366): 4
3 | VRVKKRPLIRPLNSS | 6 | 3 | 1 | 9 | 127 | 1 | 1 | 4 | 301 | 6 | 16 | 201 | 1 | 14 | 9 | 2 | 11 | 22 | 188 | 8 | SPOT intensity (Bem1-1, P29366): 0; SPOT intensity (Sla1-2, P32790): 2; SPOT intensity (Lsb4, P32793): 16; SPOT intensity (Rvs167, P39743): 7; SPOT intensity (Hof1, Q05080): 0; SPOT intensity (Boi1, P38041): 2; SPOT intensity (Bem1-2, P29366): 0
4 | ISRRRLPVIMHRLKM | 2 | 1 | 0 | 137 | 51 | 0 | 27 | 22 | 90 | 15 | 2 | 26 | 2 | 17 | 5 | 0 | 5 | 20 | 112 | 7 | SPOT intensity (Bem1-1, P29366): 0; SPOT intensity (Sla1-2, P32790): 1; SPOT intensity (Lsb4, P32793): 21; SPOT intensity (Rvs167, P39743): 21; SPOT intensity (Hof1, Q05080): 9; SPOT intensity (Boi1, P38041): 1; SPOT intensity (Bem1-2, P29366): 16
